The results in this text go back to patent publication US20260248972A1, “DUAL RECEPTOR TARGETING RADIOLIGANDS AND USES THEREOF RELATED APPLICATIONS” (priority 2022, published 2026).

A word on the tissue uptake: it is the share of the injected amount in each gram of the tissue.

Like-named read-outs stand apart in the source and are kept apart here.

The target in one series is T1, CCK2R (Rattus norvegicus, UniProt P30553).
T1 construct: host or cells: AR42J cells
T1 sequence (P30553 1-452): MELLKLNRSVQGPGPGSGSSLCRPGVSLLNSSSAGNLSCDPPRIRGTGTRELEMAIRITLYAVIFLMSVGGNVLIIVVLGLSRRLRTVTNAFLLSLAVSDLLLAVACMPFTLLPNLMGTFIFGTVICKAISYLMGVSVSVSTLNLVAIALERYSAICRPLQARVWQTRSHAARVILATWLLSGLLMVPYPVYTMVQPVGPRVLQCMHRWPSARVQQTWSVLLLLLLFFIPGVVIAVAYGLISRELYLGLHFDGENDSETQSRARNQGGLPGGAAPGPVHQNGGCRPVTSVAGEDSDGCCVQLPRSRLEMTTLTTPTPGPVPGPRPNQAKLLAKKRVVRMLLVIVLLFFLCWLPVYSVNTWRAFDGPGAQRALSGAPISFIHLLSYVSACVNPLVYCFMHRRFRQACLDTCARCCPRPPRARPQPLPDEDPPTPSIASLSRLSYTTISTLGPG
Description: Competitive cell-binding assay on AR42J cells with 125I-C3 as competitive ligand. The protocol: (§1) AR42J cells (ATCC) were maintained in RPMI-1640 medium (Gibco) supplemented with 15% fetal bovine serum (Gibco) and 1% penicillin-streptomycin (BI) at 37° C. in a humidified incubator with 5% CO2. The culture medium was replaced with fresh medium every 2-3 days. Experiments were performed with cells at 70-80% confluence.
(§2) Binding Affinity Tested by Using ^125I-Labeled Competitive Ligands.
(§3) The binding affinities of test compounds were determined by a competitive cell-binding assay using ^125I-C1 and ^125I-C3 as the competitive ligand. The suspended AR42J cells at a density of 1~3×10^6 cells/mL in binding buffer (RPMI-1640 medium supplemented with 0.25% bovine serum albumin) were transferred to a MultiScreen-DV Filter Plate (Millipore) with 100 μL per well except the blank group where the binding buffer was used instead. The cells were then incubated with ^125I-C1 and ^125I-C3 (0.02 μCi/well) in the presence of increasing concentrations (0-10000 nM) of test compounds at 37° C. for 1 h (n=3). The final volume in each well was maintained at 200 μL and insufficient volume was adjusted by the binding buffer. After the 1 h incubation, unbound ^125I-competitive ligands were removed by filtration using a Multiscreen vacuum manifold (Millipore) followed by rinses with the binding buffer (3 times). The filters were collected, and their radioactivity were individually measured by γ counter (2480 WIZARD2, PerkinElmer). The best-fit IC50value (inhibitory concentration when 50% of the bound ^125I-C1 and ^125l I-C3 on cells were displaced) of test compounds were calculated by fitting the data with nonlinear regression using GraphPad Prism 8.0.1.

A further series has as its target T2, SSTR2 (Rattus norvegicus, UniProt P30680).
T2 construct: host or cells: AR42J cells
Description: Competitive cell-binding assay on AR42J cells with 125I-C1 as competitive ligand. The procedure:
as §1, §2, §3

The nature of a further series: in vivo. As to conditions: BALB/c nude, mouse, in vivo, iv, total radioactivity. A digest of the protocol:
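Compounds labelled with ^177Lu in 0.5 M NaOAc pH 4.5 at 95° C for 15 min, then used directly or diluted in PBS with 3 mg/mL ascorbate. BALB/c nude mice bore subcutaneous AR42J flank xenografts (0.05-0.50 g). Organs excised at 4, 24 and 72 h post-injection and γ-counted for % ID and % ID/g.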

T2 sequence (P30680 whole entry): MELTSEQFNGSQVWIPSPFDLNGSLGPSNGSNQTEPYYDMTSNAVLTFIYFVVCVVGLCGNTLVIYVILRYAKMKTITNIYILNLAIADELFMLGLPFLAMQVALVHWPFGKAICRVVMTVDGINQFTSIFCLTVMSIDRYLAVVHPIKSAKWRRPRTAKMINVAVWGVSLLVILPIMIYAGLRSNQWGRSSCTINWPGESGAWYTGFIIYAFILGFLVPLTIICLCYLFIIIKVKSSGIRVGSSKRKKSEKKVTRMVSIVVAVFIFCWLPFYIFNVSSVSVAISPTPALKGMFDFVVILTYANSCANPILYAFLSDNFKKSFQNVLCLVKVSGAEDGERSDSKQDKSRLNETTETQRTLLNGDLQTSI

`CC(C)(C)C(=O)CN1C(=O)[C@H](NC(=O)Nc2cccc(C(=O)N[C@@H](CCC(=O)N[C@@H](CCC(=O)N[C@@H](CCC(=O)N[C@@H](CCCCNC(=O)COCCOCCNC(=O)COCCOCCNC(=O)CCC(C(=O)O)N3CCN(CC(=O)O)CCN(CC(=O)O)CCN(CC(=O)O)CC3)C(N)=O)C(=O)O)C(=O)O)C(=O)O)c2)CN(C2CCCCC2)c2ccccc21` (stereo partly drawn) [Compound C-4, Z360-gE-gE-gE-K(-OEG-OEG-DOTAGA)-NH2, reference compound]: the “Relative Binding Affinity CCK2R” value on CCK2R (based on mean IC50, C-2 = 1.00) is on record as 21.9.
Regarding `C[C@@H](O)[C@@H]1NC(=O)[C@H](CCCCN)NC(=O)[C@@H](Cc2c[nH]c3ccccc23)NC(=O)[C@H](Cc2ccc(O)cc2)NC(=O)[C@@H](NC(=O)[C@@H](Cc2ccccc2)NC(=O)COCCOCCNC(=O)[C@H](CCCCNC(=O)[C@H](CCC(=O)O)NC(=O)c2cccc(NC(=O)N[C@@H]3CN(C4CCCCC4)c4ccccc4N(CC(=O)C(C)(C)C)C3=O)c2)NC(=O)CN2CCN(CC(=O)O)CCN(CC(=O)O)CCN(CC(=O)O)CC2)CSSC[C@@H](C(=O)N[C@H](CO)[C@@H](C)O)NC1=O` [Compound I-5, DOTA-K(-E-Z360)-OEG-f[CYwKTC]-Thr(ol)], the “Relative Binding Affinity SSTR2” value on SSTR2 (based on mean IC50, C-1 = 1.00) is 0.10. Moreover, the “Relative Binding Affinity CCK2R” value at CCK2R (based on mean IC50, C-2 = 1.00) was 216.
`C[C@@H](O)[C@H](NC(=O)[C@@H]1CSSC[C@H](NC(=O)[C@@H](Cc2ccccc2)NC(=O)COCCOCCNC(=O)COCCOCCNC(=O)COCCOCCNC(=O)[C@H](CCCCNC(=O)c2cccc(NC(=O)N[C@@H]3CN(C4CCCCC4)c4ccccc4N(CC(=O)C(C)(C)C)C3=O)c2)NC(=O)CN2CCN(CC(=O)O)CCN(CC(=O)O)CCN(CC(=O)O)CC2)C(=O)N[C@@H](Cc2ccc(O)cc2)C(=O)N[C@H](Cc2c[nH]c3ccccc23)C(=O)N[C@@H](CCCCN)C(=O)N[C@@H]([C@@H](C)O)C(=O)N1)C(=O)O` [Compound I-45, DOTA-K(Z360)-OEG-OEG-OEG-f[CYwKTC]T-OH]: the IC50 at SSTR2 (AR42J cells, 125I-C1 competitive ligand, 37° C. 1 h, read-out: SSTR2/IC50) came to 2.07 nM; at CCK2R (AR42J cells, 125I-C3 competitive ligand, 37° C. 1 h, read-out: CCK2R/IC50) it was 9.9 nM. The “Relative Binding Affinity SSTR2” value on SSTR2 (based on mean IC50, C-1 = 1.00) was determined as 1.36. In addition, the “Relative Binding Affinity CCK2R” value on CCK2R (based on mean IC50, C-2 = 1.00) is reported as 1.7.
Consider `C[C@@H](O)[C@H](NC(=O)[C@@H]1CSSC[C@H](NC(=O)[C@@H](Cc2ccccc2)NC(=O)COCCOCCNC(=O)COCCOCCNC(=O)[C@H](CCCCNC(=O)CC[C@H](NC(=O)CNC(=O)c2cccc(NC(=O)N[C@@H]3CN(C4CCCCC4)c4ccccc4N(CC(=O)C(C)(C)C)C3=O)c2)C(=O)O)NC(=O)CN2CCN(CC(=O)O)CCN(CC(=O)O)CCN(CC(=O)O)CC2)C(=O)N[C@@H](Cc2ccc(O)cc2)C(=O)N[C@H](Cc2c[nH]c3ccccc23)C(=O)N[C@@H](CCCCN)C(=O)N[C@@H]([C@@H](C)O)C(=O)N1)C(=O)O` [Compound I-2, DOTA-K(-gE-G-Z360)-OEG-OEG-f[CYwKTC]T-OH], for which, at SSTR2 (based on mean IC50, C-1 = 1.00), the “Relative Binding Affinity SSTR2” value was 2.94.
For `C[C@@H](O)[C@H](NC(=O)[C@@H]1CSSC[C@H](NC(=O)[C@@H](Cc2ccccc2)NC(=O)[C@H](CCCCNC(=O)COCCOCCNC(=O)COCCOCCNC(=O)COCCOCCNC(=O)c2cccc(NC(=O)N[C@@H]3CN(C4CCCCC4)c4ccccc4N(CC(=O)C(C)(C)C)C3=O)c2)NC(=O)CN2CCN(CC(=O)O)CCN(CC(=O)O)CCN(CC(=O)O)CC2)C(=O)N[C@@H](Cc2ccc(O)cc2)C(=O)N[C@H](Cc2c[nH]c3ccccc23)C(=O)N[C@@H](CCCCN)C(=O)N[C@@H]([C@@H](C)O)C(=O)N1)C(=O)O` [Compound I-46, DOTA-K(-OEG-OEG-OEG-Z360)-f[CYwKTC]T-OH], at SSTR2, the “Relative Binding Affinity SSTR2” value is 0.43. Moreover, on CCK2R, the “Relative Binding Affinity CCK2R” value is 50.2.
In the case of `C[C@@H](O)[C@H](NC(=O)[C@@H]1CSSC[C@H](NC(=O)[C@@H](Cc2ccccc2)NC(=O)COCCOCCNC(=O)[C@H](CCCCNC(=O)CC[C@H](NC(=O)CNC(=O)c2cccc(NC(=O)N[C@@H]3CN(C4CCCCC4)c4ccccc4N(CC(=O)C(C)(C)C)C3=O)c2)C(=O)O)NC(=O)COCCOCCNC(=O)COCCOCCNC(=O)CC[C@H](NC(=O)CC[C@H](NC(=O)CN2CCN(CC(=O)O)CCN(CC(=O)O)CCN(CC(=O)O)CC2)C(=O)O)C(=O)O)C(=O)N[C@@H](Cc2ccc(O)cc2)C(=O)N[C@H](Cc2c[nH]c3ccccc23)C(=O)N[C@@H](CCCCN)C(=O)N[C@@H]([C@@H](C)O)C(=O)N1)C(=O)O` [Compound I-15, DOTA-gE-gE-OEG-OEG-K(-gE-G-Z360)-OEG-f[CYwKTC]T-OH], the “Relative Binding Affinity SSTR2” value on SSTR2 (based on mean IC50, C-1 = 1.00) stood at 0.29. The “Relative Binding Affinity CCK2R” value on CCK2R (based on mean IC50, C-2 = 1.00) came out at 71.1.
On to `C[C@@H](O)[C@H](NC(=O)[C@@H]1CSSC[C@H](NC(=O)[C@@H](Cc2ccccc2)NC(=O)CN2CCN(CC(=O)O)CCN(CC(=O)O)CCN(CC(=O)O)CC2)C(=O)N[C@@H](Cc2ccc(O)cc2)C(=O)N[C@H](Cc2c[nH]c3ccccc23)C(=O)N[C@@H](CCCCN)C(=O)N[C@@H]([C@@H](C)O)C(=O)N1)C(=O)O` [Compound C-1, DOTA-f[CYwKTC]T-OH, reference compound], for which the IC50 on SSTR2 came to 2.81 nM.
In the case of `C[C@@H](O)[C@H](NC(=O)[C@@H]1CSSC[C@H](NC(=O)[C@@H](Cc2ccccc2)NC(=O)COCCOCCNC(=O)[C@H](CCCCNC(=O)[C@H](CCC(=O)O)NC(=O)c2cccc(NC(=O)N[C@@H]3CN(C4CCCCC4)c4ccccc4N(CC(=O)C(C)(C)C)C3=O)c2)NC(=O)CN2CCN(CC(=O)O)CCN(CC(=O)O)CCN(CC(=O)O)CC2)C(=O)N[C@@H](Cc2ccc(O)cc2)C(=O)N[C@H](Cc2c[nH]c3ccccc23)C(=O)N[C@@H](CCCCN)C(=O)N[C@@H]([C@@H](C)O)C(=O)N1)C(=O)O` [Compound I-27, DOTA-K(-E-Z360)-OEG-f[CYwKTC]T-OH], the tissue to tissue ratio at 24 h in “in vivo” (T/K Tumor/Kidney ratio) came out at 1.4; in “in vivo” (T/L Tumor/Liver ratio) it was 26; in “in vivo” (T/P Tumor/Pancreas ratio), 16; in “in vivo” (T/Sp Tumor/Spleen ratio), 64; in “in vivo” (T/St Tumor/Stomach ratio) it was 6.3. The tissue uptake at 24 h in “in vivo” (uptake Kidney) stood at 21 %ID/g; in “in vivo” (uptake Liver), 1.11 %ID/g; in “in vivo” (uptake Pancreas), 1.79 %ID/g; in the series “in vivo” (uptake Spleen), 0.44 %ID/g; in the series “in vivo” (uptake Stomach), 4.51 %ID/g; in “in vivo” (uptake Tumor) it was 28.5 %ID/g. The “Relative Binding Affinity SSTR2” value on SSTR2 (based on mean IC50, C-1 = 1.00) was found to be 0.51.
Turning to `C[C@@H](O)[C@H](NC(=O)[C@@H]1CSSC[C@H](NC(=O)[C@@H](Cc2ccccc2)NC(=O)[C@H](CCCCNC(=O)c2cccc(NC(=O)N[C@@H]3CN(C4CCCCC4)c4ccccc4N(CC(=O)C(C)(C)C)C3=O)c2)NC(=O)COCCOCCNC(=O)CN2CCN(CC(=O)O)CCN(CC(=O)O)CCN(CC(=O)O)CC2)C(=O)N[C@@H](Cc2ccc(O)cc2)C(=O)N[C@H](Cc2c[nH]c3ccccc23)C(=O)N[C@@H](CCCCN)C(=O)N[C@@H]([C@@H](C)O)C(=O)N1)C(=O)O` [Compound I-35, DOTA-OEG-K(Z360)-f[CYwKTC]T-OH], the tissue to tissue ratio at 24 h in “in vivo” (T/K Tumor/Kidney ratio) stood at 2.9; in the series “in vivo” (T/L Tumor/Liver ratio), 3.5; in the series “in vivo” (T/P Tumor/Pancreas ratio), 19; in the series “in vivo” (T/Sp Tumor/Spleen ratio) it was 38; in “in vivo” (T/St Tumor/Stomach ratio) it was 5.8. For the same molecule, the tissue uptake at 24 h in “in vivo” (uptake Kidney) was 6.1 %ID/g; in the series “in vivo” (uptake Liver), 5.06 %ID/g; in “in vivo” (uptake Pancreas), 0.96 %ID/g; in “in vivo” (uptake Spleen), 0.47 %ID/g; in the series “in vivo” (uptake Stomach), 3.09 %ID/g; in “in vivo” (uptake Tumor) it was 17.8 %ID/g.
